Data on three molecules can be found in US7537764.

The labels stand for the following.
B1: SC04-374 (scFv)
scFv: QVTLKESGPTLVKPTQTLTLTCTFSGFSLSTSGVGVGWIRQPPGKALEWLAVIYWNDDKLYRPSLKSRLTITKDTSKNQVVLTMTKMDPVDTATYYCAHRHRYYDISGYYRLFSDAFDIWGQGTMVTVSSGTGGSGGTGSGTGGSTQSVVTQPPSVSGAPGQRVTISCTGSSSNIGAGYDVHWYQQLPGTAPKLLIYGNSNRPSGVPDRFSGSKSGTSASLAITGLQAEDEADYYCQSYDSSLSGSVFGGGTKLTVLG
B2: SC04-353 (scFv)
scFv: EVQLVQSGGGVVQPGRSLRLSCAASGFTFSNYAMHWVRQAPGKGLEWVAVISYDGGNKYYADSVKGRFTMSRDNSKNTLYLQMNSLRAEDTAVYYCARDFWSGYSMVDSYYYYMDVWGKGTTVTVSSGTGGSGGTGSGTGGSTETTLTQSPGTLSLSPGERATLSCRASQSVSNTFLAWYQQKPGQAPRLLIYGASSRATGIPDRFSGSGSGTDFTLTISRLEPEDFAAYYCQQYGSSLTFGPGTKVDIKR
B3: SC04-361 (scFv)
scFv: EVQLVQSGAEVKKPGESLKISCKASGFSFSTYWIGWVRQMPGKGLEWMGIIYPADSDTRYSPSFQGQVTISADKSISTAYLQWSSLKASDTAMYYCARLRGPYYDFWNGYRETHDAFNVWGQGTMVTVSSGTGGSGGTGSGTGGSTDVVMTQSPDSLAVSLGERATINCKSSQNILDNSDNKNFLAWYQQKPGQPPKLLIYWASARESGVPDRFSGSGSGTDFTLTISSLQAEDVALYYCQQYYNTPITFGQGTRLEIKR

The test deals with whole inactivated rabies virus (rabies virus). Nature of the test: phage ELISA on coated whole inactivated rabies virus. (In an ELISA, binding on a coated surface is turned into a signal by an enzyme label.)
In the case of B1, the OD 492 nm amounted to 0.056 OD.

B2 registered an OD 492 nm of 0.057 OD.

Consider B3, for which the OD 492 nm turned out to be 0.059 OD.
